# Measured values as given in patent US20140221611A1.
# Positions of bridges follow the written chain, without caps; N, C: chain ends. No end group written: not given here. *: point of attachment. NHNH2 = NN*
# Target: REFACTO® factor VIII-like polypeptide (amino acids 1-743 and 1638 through 2332 of human factor VIII) (human) (UniProt P00451)
# Assay: phage ELISA, anti-M13-HRP
# REFACTO® factor VIII-like polypeptide (amino acids 1-743 and 1638 through 2332 of human factor VIII) (human), sequence (P00451 20-762, chain 1 of 2): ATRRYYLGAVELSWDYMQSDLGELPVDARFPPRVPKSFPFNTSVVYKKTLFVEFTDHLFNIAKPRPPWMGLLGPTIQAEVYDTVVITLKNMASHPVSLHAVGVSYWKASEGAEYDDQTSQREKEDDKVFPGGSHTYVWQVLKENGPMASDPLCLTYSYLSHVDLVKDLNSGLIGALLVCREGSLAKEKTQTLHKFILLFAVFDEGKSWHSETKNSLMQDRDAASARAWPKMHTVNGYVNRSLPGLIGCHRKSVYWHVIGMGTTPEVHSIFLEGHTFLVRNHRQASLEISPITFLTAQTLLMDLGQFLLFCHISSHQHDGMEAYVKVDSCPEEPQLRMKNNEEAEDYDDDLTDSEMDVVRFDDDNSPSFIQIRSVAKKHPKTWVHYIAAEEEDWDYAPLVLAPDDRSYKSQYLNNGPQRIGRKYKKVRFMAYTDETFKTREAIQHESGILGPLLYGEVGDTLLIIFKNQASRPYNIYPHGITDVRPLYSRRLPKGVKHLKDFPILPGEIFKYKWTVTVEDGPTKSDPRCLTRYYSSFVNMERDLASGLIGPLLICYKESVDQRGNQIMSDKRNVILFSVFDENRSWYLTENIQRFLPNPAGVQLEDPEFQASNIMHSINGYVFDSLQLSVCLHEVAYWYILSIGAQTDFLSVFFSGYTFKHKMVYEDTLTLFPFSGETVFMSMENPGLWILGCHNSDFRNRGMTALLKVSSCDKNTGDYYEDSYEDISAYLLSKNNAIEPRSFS
# REFACTO® factor VIII-like polypeptide (amino acids 1-743 and 1638 through 2332 of human factor VIII) (human), sequence (P00451 1657-2351, chain 2 of 2): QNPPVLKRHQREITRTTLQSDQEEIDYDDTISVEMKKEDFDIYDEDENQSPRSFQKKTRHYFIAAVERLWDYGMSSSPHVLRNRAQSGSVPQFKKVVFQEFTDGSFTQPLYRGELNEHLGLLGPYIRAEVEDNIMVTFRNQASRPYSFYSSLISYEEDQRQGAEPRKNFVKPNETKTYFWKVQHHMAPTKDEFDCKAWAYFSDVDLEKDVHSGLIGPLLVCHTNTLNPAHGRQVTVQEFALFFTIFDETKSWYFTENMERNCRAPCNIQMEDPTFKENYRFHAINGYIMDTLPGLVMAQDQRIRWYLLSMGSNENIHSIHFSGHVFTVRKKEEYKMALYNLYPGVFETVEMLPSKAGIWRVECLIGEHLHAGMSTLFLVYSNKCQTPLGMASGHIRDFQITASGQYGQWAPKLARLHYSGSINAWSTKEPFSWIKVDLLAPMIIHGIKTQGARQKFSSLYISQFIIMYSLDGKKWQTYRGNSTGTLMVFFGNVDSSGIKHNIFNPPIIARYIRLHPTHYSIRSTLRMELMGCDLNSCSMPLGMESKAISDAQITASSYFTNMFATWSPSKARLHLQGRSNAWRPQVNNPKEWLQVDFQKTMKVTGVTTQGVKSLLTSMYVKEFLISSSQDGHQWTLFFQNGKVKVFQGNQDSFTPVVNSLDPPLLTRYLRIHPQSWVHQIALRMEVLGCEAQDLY
row,Binder,ELISA signal
1,"HACGSWFRPCHA [TN8 isolate 07 (phage-displayed peptide, SEQ ID NO: 15)]",0.4 OD630
2,"HPCGSWLRPCLH [TN8 isolate 10 (phage-displayed peptide, SEQ ID NO: 10)]",1 OD630
3,"FCHVFPFLHCD [TN9 isolate 11 (phage-displayed peptide, SEQ ID NO: 32)]",0.2 OD630
4,"HRCGSWLHPCLA [TN8 isolate 11/G10 (phage-displayed peptide, SEQ ID NO: 21)]",0.3 OD630
5,"FCWVFPFHHCF [TN9 isolate 06 (phage-displayed peptide, SEQ ID NO: 30)]",0.3 OD630
6,"FCWVFPFNHCS [TN9 isolate 12 (phage-displayed peptide, SEQ ID NO: 28)]",1 OD630
7,"FHCIGVWFCLH [TN7 isolate A09 (phage-displayed peptide, SEQ ID NO: 8)]",0.1 OD630
8,"RGCGSWLRPCLD [TN8 isolate 05 (phage-displayed peptide, SEQ ID NO: 11)]",0.2 OD630
9,"RLCSWVSPCSA [TN7 isolate C5/G10 (phage-displayed peptide, SEQ ID NO: 9)]",0.5 OD630
10,"HGCGAWFRPCHA [TN8 isolate 01 (phage-displayed peptide, SEQ ID NO: 18)]",0.2 OD630
11,"FCHVFNFVHCS [TN9 isolate 01 (phage-displayed peptide, SEQ ID NO: 31)]",0.5 OD630
12,"HLCGAWFRPCDA [TN8 isolate 02 (phage-displayed peptide, SEQ ID NO: 16)]",0.4 OD630
13,"HPCGSWFRPCFH [TN8 isolate 02 (phage-displayed peptide, SEQ ID NO: 14)]",0.7 OD630
14,"HLCFAWFRPCDA [TN8 isolate 12 (phage-displayed peptide, SEQ ID NO: 17)]",0.4 OD630
15,"FCWVHPFAHCL [TN9 isolate 02 (phage-displayed peptide, SEQ ID NO: 23)]",0.2 OD630
16,"FCHVFHFSHCD [TN9 isolate 01 (phage-displayed peptide, SEQ ID NO: 24)]",0.2 OD630
17,"FGCSWLFPCPF [TN7 isolate A08 (phage-displayed peptide, SEQ ID NO: 5)]",0.4 OD630
18,"HSCGSWLFPCFA [TN7 isolate A06 (phage-displayed peptide, SEQ ID NO: 4)]",0.5 OD630
19,"FCWVFPFQHCA [TN9 isolate 09 (phage-displayed peptide, SEQ ID NO: 29)]",1.1 OD630
20,"FCWVFNFSHCS [TN9 isolate 03 (phage-displayed peptide, SEQ ID NO: 26)]",1.1 OD630
21,"HPCGSWLHPCAA [TN8 isolate 04 (phage-displayed peptide, SEQ ID NO: 12)]",0.3 OD630
22,"FCWVFPFNHCD [TN9 isolate 02 (phage-displayed peptide, SEQ ID NO: 27)]",0.4 OD630
23,"HPCGAWFNPCPR [TN8 isolate 01 (phage-displayed peptide, SEQ ID NO: 19)]",0.2 OD630
24,"HPCGSWFNPCAH [TN8 isolate 02 (phage-displayed peptide, SEQ ID NO: 13)]",0.3 OD630
25,"RLCSWISPCSA [TN7 isolate D04 (phage-displayed peptide, SEQ ID NO: 7)]",0.3 OD630
26,"HPCGAWLRPCYN [TN8 isolate 08 (phage-displayed peptide, SEQ ID NO: 20)]",1 OD630
27,"PHCNWLFPCSL [TN7 isolate D03 (phage-displayed peptide, SEQ ID NO: 6)]",0.2 OD630

# Target: REFACTO® factor VIII-like polypeptide (amino acids 1-743 and 1638 through 2332 of human factor VIII) (human) (UniProt P00451)
# Assay: affinity column of immobilised peptide; fractions by factor VIII activity assay
Binder,% recovery in Elution A,% recovery in Flow
AEGTGDFCWVFAFDHCHDPGPEGGGS-NHNH2 (disulfide 8-16 (inferred)) [Affinity ligand CS-458],55.6%,1.4%
AEGTGDHPCGSWLRPCLHDPGPEGGGS-NHNH2 (disulfide 9-16 (inferred)) [Affinity ligand CS-453],26.4%,0%
AEGTGDHLCGAWFRPCDADPGPEGGGS-NHNH2 (disulfide 9-16 (inferred)) [Affinity ligand CS-454],42.4%,2.2%
AEGTGDFGCSWLFPCPFDPGPEGGGS-NHNH2 (disulfide 9-15 (inferred)) [Affinity ligand CS-456],43%,4.8%
AEGTGDFHCIGVWFCLHDPGPEGGGS-NHNH2 (disulfide 9-15 (inferred)) [Affinity ligand CS-455],1.3%,61.6%
AEGTGDFCWVFPFHHCFDPGPEGGGS-NHNH2 (disulfide 8-16 (inferred)) [Affinity ligand CS-460],0%,28.4%
AEGTGDFCWVFPFQHCADPGPEGGGS-NHNH2 (disulfide 8-16 (inferred)) [Affinity ligand CS-459],31.2%,6.4%

# Target: REFACTO® factor VIII-like polypeptide (amino acids 1-743 and 1638 through 2332 of human factor VIII) (human) (UniProt P00451)
# Assay: phage ELISA
row,Binder,R (ratio of the ELISA score with target present to the ELISA score without target)
1,"HACGSWFRPCHA [TN8 isolate 07 (phage-displayed peptide, SEQ ID NO: 15)]",6
2,"HPCGSWLRPCLH [TN8 isolate 10 (phage-displayed peptide, SEQ ID NO: 10)]",16
3,"HRCGSWLHPCLA [TN8 isolate 11/G10 (phage-displayed peptide, SEQ ID NO: 21)]",6
4,"FCWVFPFHHCF [TN9 isolate 06 (phage-displayed peptide, SEQ ID NO: 30)]",6
5,"FCWVFPFNHCS [TN9 isolate 12 (phage-displayed peptide, SEQ ID NO: 28)]",18
6,"RLCSWVSPCSA [TN7 isolate C5/G10 (phage-displayed peptide, SEQ ID NO: 9)]",10
7,"FCHVFNFVHCS [TN9 isolate 01 (phage-displayed peptide, SEQ ID NO: 31)]",8
8,FCWVFAFDHCH [TN9/1 isolate … (SEQ ID NO: 71)],24
9,FCWVFNWVHCD [TN9/1 isolate … (SEQ ID NO: 75)],14
10,"HLCGAWFRPCDA [TN8 isolate 02 (phage-displayed peptide, SEQ ID NO: 16)]",6
11,"HPCGSWFRPCFH [TN8 isolate 02 (phage-displayed peptide, SEQ ID NO: 14)]",16
12,"HLCFAWFRPCDA [TN8 isolate 12 (phage-displayed peptide, SEQ ID NO: 17)]",8
13,FCWVFQFRHCH [TN9/1 isolate … (SEQ ID NO: 77)],8
14,"FGCSWLFPCPF [TN7 isolate A08 (phage-displayed peptide, SEQ ID NO: 5)]",8
15,"HSCGSWLFPCFA [TN7 isolate A06 (phage-displayed peptide, SEQ ID NO: 4)]",10
16,"FCWVFPFQHCA [TN9 isolate 09 (phage-displayed peptide, SEQ ID NO: 29)]",24
17,"FCWVFNFSHCS [TN9 isolate 03 (phage-displayed peptide, SEQ ID NO: 26)]",24
18,"HPCGSWLHPCAA [TN8 isolate 04 (phage-displayed peptide, SEQ ID NO: 12)]",6
19,"FCWVFPFNHCD [TN9 isolate 02 (phage-displayed peptide, SEQ ID NO: 27)]",8
20,"HPCGSWFNPCAH [TN8 isolate 02 (phage-displayed peptide, SEQ ID NO: 13)]",8
21,"RLCSWISPCSA [TN7 isolate D04 (phage-displayed peptide, SEQ ID NO: 7)]",6
22,"HPCGAWLRPCYN [TN8 isolate 08 (phage-displayed peptide, SEQ ID NO: 20)]",20

# Target: REFACTO® factor VIII-like polypeptide (amino acids 1-743 and 1638 through 2332 of human factor VIII) (human) (UniProt P00451)
# Assay: affinity column of immobilised peptide; fractions by RP-HPLC
Binder,% recovery in Elution A,% recovery in Elution B,% recovery in Flow,% recovery in pH 2
AEGTGDFCWVFAFDHCHDPGPEGGGS-NHNH2 (disulfide 8-16 (inferred)) [Affinity ligand CS-458],54.3%,0%,1.8%,0%
AEGTGDHPCGSWLRPCLHDPGPEGGGS-NHNH2 (disulfide 9-16 (inferred)) [Affinity ligand CS-453],43.2%,0%,0%,0%
AEGTGDHLCGAWFRPCDADPGPEGGGS-NHNH2 (disulfide 9-16 (inferred)) [Affinity ligand CS-454],45.1%,0%,2.5%,0%
AEGTGDFGCSWLFPCPFDPGPEGGGS-NHNH2 (disulfide 9-15 (inferred)) [Affinity ligand CS-456],44.8%,0%,3.4%,0%
AEGTGDFHCIGVWFCLHDPGPEGGGS-NHNH2 (disulfide 9-15 (inferred)) [Affinity ligand CS-455],1.4%,0%,65.8%,0%
AEGTGDFCWVFPFHHCFDPGPEGGGS-NHNH2 (disulfide 8-16 (inferred)) [Affinity ligand CS-460],28.8%,0%,24.6%,0%
AEGTGDFCWVFPFQHCADPGPEGGGS-NHNH2 (disulfide 8-16 (inferred)) [Affinity ligand CS-459],42.1%,0%,1.6%,0%
